Patent US20220280636A1

What was measured:
[1] = target: human whole molecule IgG (human); experiment: SPR; IgG amine-coupled to CM5 chip, control flowed at 490 ug/ml at the start of the serial flows; end-point RU of association phase
[2] = target: rabbit whole molecule IgG (rabbit); experiment: as above
[3] = target: human whole molecule IgG (human); experiment: SPR; IgG amine coupled to CM5 chip, control flowed at 490 ug/ml at the start of the serial flows; end-point RU of association phase
[4] = target: rabbit whole molecule IgG (rabbit); experiment: as above
human IgG Fc (human) [5] = experiment: as above
[6] = target: guinea pig whole molecule IgG (guinea pig); experiment: as above
[7] = target: mouse whole molecule IgG (mouse); experiment: as above
[8] = target: human whole molecule IgG (human); experiment: SPR; IgG amine-coupled to CM5 chip, control flowed at 490 ug/ml at the start of the serial flows; end-point RU of association phase; remark: listed apart in the source
[9] = target: rabbit whole molecule IgG (rabbit); experiment: as above; remark: listed apart in the source
human IgG Fc (human) [10] = experiment: as above
[11] = target: human whole molecule IgG (human); experiment: SPR; IgG amine coupled to CM5 chip, control flowed at 490 ug/ml at the end of the serial flows; end-point RU of association phase
[12] = target: rabbit whole molecule IgG (rabbit); experiment: as above
human IgG Fc (human) [13] = experiment: as above
[14] = target: guinea pig whole molecule IgG (guinea pig); experiment: as above
[15] = target: mouse whole molecule IgG (mouse); experiment: as above
[16] = target: human whole molecule IgG (human); experiment: SPR; IgG amine-coupled to CM5 chip, control flowed at 490 ug/ml at the end of the serial flows; end-point RU of association phase
[17] = target: rabbit whole molecule IgG (rabbit); experiment: as above
human IgG Fc (human) [18] = experiment: as above
[19] = target: human whole molecule IgG (human); experiment: as above; remark: listed apart in the source
[20] = target: rabbit whole molecule IgG (rabbit); experiment: as above; remark: listed apart in the source
human IgG Fc (human) [21] = experiment: as above; remark: listed apart in the source
[22] = target: human whole molecule IgG (human); experiment: SPR; IgG amine coupled to CM5 chip, construct flowed at 750 ug/ml; end-point RU of association phase
[23] = target: rabbit whole molecule IgG (rabbit); experiment: as above
human IgG Fc (human) [24] = experiment: as above
[25] = target: guinea pig whole molecule IgG (guinea pig); experiment: as above
[26] = target: mouse whole molecule IgG (mouse); experiment: as above

B1: gE-1t 411 (protein)
chain: GTPKTSWRRVSVGEDVSLLPAPGPTGRGPTQKLLWAVEPLDGCGPLHPSWVSLMPPKQVPETVVDAACMRAPVPLAMAYAPPAPSATGGLRTDFVWQERAAVVNRSLVIHGVRETDSGLYTLSVGDIKDPARQVASVVLVVQPAPVPTPPPTPADYDEDDNDEGEDESLAGTPASGTPRLPPPPAPPRSWPSAPEVSHVRGVTVRMETPEAILFSPGETFSTNVSIHAIAHDDQTYSMDVVWLRFDVPTSCAEMRIYESCLYHPQLPECLSPADAPCAASTWTSRLAVRSYAGCSRTNPPPRCSAEAHMEPVPGLAWQAASVNLEFRDASPQHSGLYLCVVYVNDHIHAWGHITISTAAQYRNAVVEQPLPQRGADLAEPTHPHVGAPPHA
[1]
  RU Post Association: 145 RU
[2]
  RU Post Association: 221 RU
[3]
  RU Post Association: 147 RU
[4]
  RU Post Association: 231 RU
Human IgG Fc (human) [5]
  RU Post Association: 77 RU
[6]
  RU Post Association: 32 RU
[7]
  RU Post Association: 4 RU
[8]
  RU Post Association: 157 RU
[9]
  RU Post Association: 228 RU
Human IgG Fc (human) [10]
  RU Post Association: 80 RU
[11]
  RU Post Association: 144 RU
[12]
  RU Post Association: 223 RU
Human IgG Fc (human) [13]
  RU Post Association: 72 RU
[14]
  RU Post Association: 30 RU
[15]
  RU Post Association: 8 RU
[16]
  RU Post Association: 150 RU
[17]
  RU Post Association: 221 RU
Human IgG Fc (human) [18]
  RU Post Association: 75 RU
[19]
  RU Post Association: 152 RU
[20]
  RU Post Association: 228 RU
Human IgG Fc (human) [21]
  RU Post Association: 76 RU

B2: gE-1t 419 (protein)
chain: GTPKTSWRRVSVGEDVSLLPAPGPTGRGPTQKLLWAVEPLDGCGPLHPSWVSLMPPKQVPETVVDAACMRAPVPLAMAYAPPAPSATGGLRTDFVWQERAAVVNRSLVIHGVRETDSGLYTLSVGDIKDPARQVASVVLVVQPAPVPTPPPTPADYDEDDNDEGEDESLAGTPASGTPRLPPPPAPPRSWPSAPEVSHVRGVTVRMETPEAILFSPGETFSTNVSIHAIAHDDQTYSMDVVWLRFDVPTSCAEMRIYESCLYHPQLPECLSPADAPCAASTWTSRLAVRSYAGCSRTNPPPRCSAEAHMEPVPGLAWQAASVNLEFRDASPQHSGLYLCVVYVNDHIHAWGHITISTAAQYRNAVVEQPLPQRGADLAEPTHPHVGAPPHAPPTHGALR
[22]
  RU Post Association: 127 RU
[23]
  RU Post Association: 188 RU
Human IgG Fc (human) [24]
  RU Post Association: 69 RU
[25]
  RU Post Association: 27 RU
[26]
  RU Post Association: 4 RU
